B1: LINE1-full (parent)
chain: UACGUAGGUGGUUUUCCCCUGAUAGUGCUAAGGGGGCCUGGAAGUUUGGACUGGGCAGAGCUCAACACAGCGUGGCAAAGUGGCUGUGGCUAGACUGCCUCUCUGGAUUCCUCGUCACUCAGCAGGGCAUCUCUGAGAGAAAUGCC

Variants of: B1
Test: self-cleavage, relative activity (ratio to wild type); higher = more cleavage; in vitro, sequencing; the parent is a self-cleaving ribozyme

Compared with UACGUAGGUGGUUUUCCCCUGAUAGUGCUAAGGGGGCCUGGAAGUUUGGACUGGGCAGAGCUCAACACAGCGUGGCAAAGUGGCUGUGGUUAGACUGCCUCUCUGGAUUCCUCGUCACUCAGCAGGGCAUCUCCGAGAGAAAUGCC [C90U U134C], UACGUAGGUGGUUUUCCCCUGAUAGUGCUAAGGGGGCCUGGAAGUUUGGACUGGGCAGAGCUCAACACAGCGUGGCAAAGUGGCUGUGGCAAGACCGCCUCUCUGGAUUCCUCGUCACUCAGCAGGGCAUCUCUGAGAGAAAUGCC [U91A U96C] is higher in self-cleavage: 0.04 for the first, 0.12 for the second.

Going from UACGUAGGUGGUUUUCCCCUGAUAGUGCUAAGGGGGCCUGGACGUUUGGACUGGGCAGAGCUCAACACAGCGUGGCAAAGAGGCUGUGGCUAGACUGCCUCUCUGGAUUCCUCGUCACUCAGCAGGGCAUCUCUGAGAGAAAUGCC [A43C U81A] to UACGUAGGUGGUUUUCCCCUGAUAGUGCUAGGGGGGCCUGGAAGUUUGGACUGGGCAGAGCUCAACACAGCGUGGCAAAGUGGCUGUGGCAAGACUGCCUCUCUGGAUUCCUCGUCACUCAGCAGGGCAUCUCUGAGAGAAAUGCC [A31G U91A], the self-cleavage falls from 1.77 to 0.3.

Going from UACGUAGGUGGUUUUCCCCUGAUAGUGCUAAGGGUGCCUGGAAGUUUGGACUGGGCAGAGCUCAACACGGCGUGGCAAAGUGGCUGUGGCUAGACUGCCUCUCUGGAUUCCUCGUCACUCAGCAGGGCAUCUCUGAGAGAAAUGCC [G35U A69G] to UACGUAGGUGGUUUUCCCCUGAUAGUGCUAAGGGGGCCCGGAAGUUUGGACUGGGCAGAGCUCAACACAGCGUGGCAAAGUGGCUGUGGCUAGACUGCCUCUCUGGAUUCCUCGUCACUCAUCAGGGCAUCUCUGAGAGAAAUGCC [U39C G122U], the self-cleavage rises from 0.6 to 1.53.

First: UACGUAGGUGGUUUUCCCCUGAUAGUGCUAAGGGGGCCUGGAAGUUUGGACUGGGCAGAGCUCAUCACAGCGUGGCAAAGUGGCUGUGGCUAGACCGCCUCUCUGGAUUCCUCGUCACUCAGCAGGGCAUCUCUGAGAGAAAUGCC [A65U U96C]
Second: UACGUAGGCGGUUUUCCCCUGAUAGUGCUAAGGGGGCCUGGAAGUUUGGACUGGGCAGAGCUCAACACAGCGUGGCAAAGUGGCUGUGGCUAGACUGCCUCUCUGGAUUCCUCGUCACUCAGCAGGGCAUCUCUGAGAGAAGUGCC [U9C A142G]
The self-cleavage of the first is lower: 0.02 for the first, 1.24 for the second.

Going from UACGUAGGUGGUUUUCCCCUGAUAGUGCUAAGGGGGCCUGGAAGUUUGGACUGGGCAGAGCUCAACACAGCGUGGCAAAGUGGCUGUGGCUAGACUGACUCUCUGGAUUCCUCGUCACUCAGCAGGGCAUCUCUGAGAGAGAUGCC [C98A A141G] to UACGUAGGUGGUUUUCCCCUGAUAGUGCUAAGGGGGCCUGGAAGUUUGGACUGGGCAGAGCUCAACACAGCGAGGCAAAGUGGCUGUGGCUAGACUGCCUCUCUGGAUUCCUCGUCACUCAGCAGGGCAUCUCUGAGAGAAAUGCC [U73A], the self-cleavage rises from 0.17 to 1.46.

Compared with UACGUAGGUGGUCUUCCCCUGAUAGUGCUAAGGGGGCCUGGAAGUUUGGACUGGGCAGAGCUCAACACAGCGUGACAAAGUGGCUGUGGCUAGACUGCCUCUCUGGAUUCCUCGUCACUCAGCAGGGCAUCUCUGAGAGAAAUGCC [U13C G75A], UACGUAGGUGGUUUUCCCCUGAUAGUGCUAAGGGGGCCUGGAAAUUCGGACUGGGCAGAGCUCAACACAGCGUGGCAAAGUGGCUGUGGCUAGACUGCCUCUCUGGAUUCCUCGUCACUCAGCAGGGCAUCUCUGAGAGAAAUGCC [G44A U47C] is higher in self-cleavage: 1.16 for the first, 1.51 for the second.

Going from UACGUAGGUGGUUUUCCCCUGAUAGUGCUAAGGGGGUCUGGAAGUUUGGACUGGGCAGAGCUCAACGCAGCGUGGCAAAGUGGCUGUGGCUAGACUGCCUCUCUGGAUUCCUCGUCACUCAGCAGGGCAUCUCUGAGAGAAAUGCC [C37U A67G] to UACGUAGGUGGUUUUCCCCUGAUAGUGCUAAGGGGGCCUGGAAGCUUGGACUGGGCAGAGCUCAACACAGUGUGGCAAAGUGGCUGUGGCUAGACUGCCUCUCUGGAUUCCUCGUCACUCAGCAGGGCAUCUCUGAGAGAAAUGCC [U45C C71U], the self-cleavage rises from 0.22 to 0.98.

First: UACGUAGGUGGUUUUCCCCUGAUAGGGCUAAGGGGGCCUGGAAGUUUGGACUGGGCAGAGCUCAACACAGCGUGGCAAAGUGGCUGCGGCUAGACUGCCUCUCUGGAUUCCUCGUCACUCAGCAGGGCAUCUCUGAGAGAAAUGCC [U26G U87C]
Second: AAUGUAGGUGGUUUUCCCCUGAUAGUGCUAAGGGGGCCUGGAAGUUUGGACUGGGCAGAGCUCAACACAGCGUGGCAAAGUGGCUGUGGCUAGACUGCCUCUCUGGAUUCCUCGUCACUCAGCAGGGCAUCUCUGAGAGAAAUGCC [U1A C3U]
The self-cleavage of the first is higher: 0.3 for the first, 0 for the second.

Going from UACGUAGGUGGUUUUCCCCUGAUAAUGCUAAGGGGGCCUGGAAGUUUGGACUGGGCAGAGCUCAACACAGCGUGGCAAAGUGGCUGUGGCUAGACUGCCCCUCUGGAUUCCUCGUCACUCAGCAGGGCAUCUCUGAGAGAAAUGCC [G25A U100C] to UACGUAGGUGGUUUUCCCCUGAUAGUGCUAAGGGGGCCUGGAAGUUAGGACUGGGUAGAGCUCAACACAGCGUGGCAAAGUGGCUGUGGCUAGACUGCCUCUCUGGAUUCCUCGUCACUCAGCAGGGCAUCUCUGAGAGAAAUGCC [U47A C56U], the self-cleavage falls from 1.81 to 0.14.

First: UACGUAGGUGGUUCUCCCCUGAUAGUGCUAAUGGGGCCUGGAAGUUUGGACUGGGCAGAGCUCAACACAGCGUGGCAAAGUGGCUGUGGCUAGACUGCCUCUCUGGAUUCCUCGUCACUCAGCAGGGCAUCUCUGAGAGAAAUGCC [U14C G32U]
Second: UACGUAGGUGGUUUUCCCCUGAUAGUGCUAAGGGGGCCUGGAAGAUAGGACUGGGCAGAGCUCAACACAGCGUGGCAAAGUGGCUGUGGCUAGACUGCCUCUCUGGAUUCCUCGUCACUCAGCAGGGCAUCUCUGAGAGAAAUGCC [U45A U47A]
The self-cleavage of the first is lower: 1.03 for the first, 1.17 for the second.

Reference: the RNAGym collection of RNA variant scans (doi:10.7554/elife.90254)
